The values below come from patent US20050074840A1 (published 2005).

Sequences and labels used below:
B1: TNFrED H34P (receptor)
chain: DSVCPQGKYIHPQNNSICCTKCPKGTYLYNDCPGPGQDTDCRECESGSFTASENHLRHCLSCSKCRKEMGQVEISSCTVDRDTVCGCRKNQYRHYWSENLFQCFNCSLCLNGTVHLSCQEKQNTVCTCHAGFFLRENECVSCSNCKKSLECTKLCLPQIEN
notes: Secreted from HEK293-EBNA cells, conditioned medium
B2: TNFrED H34P+S87P (receptor)
chain: B1 chain with S76P
notes: as for B1
B3: TNFrED S87P (receptor)
chain: B1 chain with P23H, S76P
notes: as for B1
B4: TNFrED H34P+S57I+S87P (receptor)
chain: B1 chain with S46I, S76P
notes: Secreted from HEK293-EBNA cells, conditioned medium; also called H34P + S87P + S571
B5: TNFrED H34P+S57I (receptor)
chain: B1 chain with S46I
notes: Secreted from HEK293-EBNA cells, conditioned medium; also called H34P + S571
B6: TNFrED S57I (receptor)
chain: B1 chain with P23H, S46I
notes: Secreted from HEK293-EBNA cells, conditioned medium; also called S571

Changes are numbered by the printed parent chain. In names and notes the source's numbering stands.

This test addresses T1, human TNF-alpha (hTNF-alpha) (human, UniProt P01375 77-233).
T1 construct: also called biotinylated hTNF-; [125I]TNF-
The test can be described thus: SPR (BIAcore), TNFrED captured on BAF225 anti-TNFrED surface, TNF-alpha injected at 1-100 nM, global 1:1 fit. An excerpt:
Conditioned media from transient transfections of HEK293-EBNA cells were concentrated with Centricon 10s and the amount of TNFrED protein was quantitated with the R & D Systems ELISA for hTNF R-1. […] Conditioned medium (no TNFrED) and HBS were used as negative controls.
As to B1, the Kd was found to be 0.5 nM, the off-rate constant (koff) is 0.0009 s⁻¹ and the association rate constant (kon) worked out at 1.9e+06 M⁻¹ s⁻¹.

The molecule B2 displayed a dissociation constant (Kd) of 0.6 nM, an off-rate constant (koff) of 0.0012 s⁻¹ and an association rate constant (kon) of 1.9e+06 M⁻¹ s⁻¹.

Molecule B3 displayed a Kd of 0.6 nM, a koff of 0.0011 s⁻¹ and an on-rate constant (kon) of 2e+06 M⁻¹ s⁻¹.

Consider B4, for which the equilibrium dissociation constant (Kd) was 0.6 nM, the off-rate (koff) came to 0.001 s⁻¹ and the on-rate (kon) stood at 1.8e+06 M⁻¹ s⁻¹.

B5 gave a Kd of 0.6 nM, a dissociation rate constant (koff) of 0.0012 s⁻¹ and an on-rate (kon) of 1.9e+06 M⁻¹ s⁻¹.

In turn, B6 gave a Kd of 0.5 nM, an off-rate constant (koff) of 0.0009 s⁻¹ and a kon of 1.9e+06 M⁻¹ s⁻¹.
